Laboratory results from patent publication US20180044422A1, “TREATING SOLID TUMOR BY TARGETING DECTIN-1 SIGNALING” (New York University, priority 2016, published 2018).
Values belong to the substance of their own block, whether it stands above or below them.

Columns and labels:
[1] = target: Putative uncharacterized protein (Sqrdl) (mouse) (UniProt Q9R112); test: Dectin-1 Fc affinity purification from KPC cell lysate, mass spectrometry
[2] = target: Dolichyl-diphosphooligosaccharide-protein glycosyltransferase subunit 1 (mouse) (UniProt Q91YQ5); test: as above
[3] = target: Prohibitin (mouse) (UniProt P67778); test: as above
[4] = target: Polyadenylate-binding protein 1 (mouse) (UniProt P29341); test: as above
[5] = target: 60S ribosomal protein L18 (mouse) (UniProt P35980); test: as above
[6] = target: Sodium/potassium-transporting ATPase subunit alpha-1 (mouse) (UniProt Q8VDN2); test: as above
[7] = target: Probable ATP-dependent RNA helicase DDX17 (mouse) (UniProt Q501J6); test: as above
[8] = target: Clusterin (mouse) (UniProt Q06890); test: as above
[9] = target: Peroxiredoxin-1 (mouse) (UniProt P35700); test: as above
[10] = target: Elongation factor 1-gamma (mouse) (UniProt Q9D8N0); test: as above
[11] = target: Isoform 2 of Microtubule-associated protein 4 (mouse) (UniProt P27546); test: as above
[12] = target: Cytochrome b-c1 complex subunit 2, mitochondrial (mouse) (UniProt Q9DB77); test: as above
[13] = target: Eef2 protein (mouse) (UniProt P58252); test: as above
[14] = target: Elongation factor 1-alpha 1 (mouse) (UniProt P10126); test: as above
[15] = target: Endoplasmin (mouse) (UniProt P08113); test: as above
[16] = target: recombinant mouse Galectin-9 (R&D Systems) (mouse) (UniProt O08573); test: Control in the bead flow cytometry assay: Dectin-1 IgG Fc beads + rGal-9, stained with the fluorescent isotype antibody instead of αGal-9 (row + + - + -) [cont.) F]

Sequence of human IgG Fc-conjugated Dectin-1 fusion protein (murine Dectin-1 IgG Fc; fc-mdec1a, InvivoGen) (Q6QLQ4 69-244 limits assumed): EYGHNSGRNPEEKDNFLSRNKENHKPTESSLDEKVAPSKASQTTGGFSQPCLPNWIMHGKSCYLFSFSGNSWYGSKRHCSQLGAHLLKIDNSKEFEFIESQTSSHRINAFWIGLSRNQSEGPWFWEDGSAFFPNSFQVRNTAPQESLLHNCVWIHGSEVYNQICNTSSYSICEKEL
Sequence of Prohibitin (mouse) (P67778 2-272 limits assumed): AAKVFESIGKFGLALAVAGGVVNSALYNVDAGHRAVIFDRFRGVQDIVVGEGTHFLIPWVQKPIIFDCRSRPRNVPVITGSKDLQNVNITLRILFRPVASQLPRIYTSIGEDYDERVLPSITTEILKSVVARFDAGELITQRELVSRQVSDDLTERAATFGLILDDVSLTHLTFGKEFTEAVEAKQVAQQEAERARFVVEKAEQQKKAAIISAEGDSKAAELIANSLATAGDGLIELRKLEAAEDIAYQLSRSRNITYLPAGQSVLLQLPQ
Sequence of Dolichyl-diphosphooligosaccharide-protein glycosyltransferase subunit 1 (mouse) (Q91YQ5 26-608 limits assumed): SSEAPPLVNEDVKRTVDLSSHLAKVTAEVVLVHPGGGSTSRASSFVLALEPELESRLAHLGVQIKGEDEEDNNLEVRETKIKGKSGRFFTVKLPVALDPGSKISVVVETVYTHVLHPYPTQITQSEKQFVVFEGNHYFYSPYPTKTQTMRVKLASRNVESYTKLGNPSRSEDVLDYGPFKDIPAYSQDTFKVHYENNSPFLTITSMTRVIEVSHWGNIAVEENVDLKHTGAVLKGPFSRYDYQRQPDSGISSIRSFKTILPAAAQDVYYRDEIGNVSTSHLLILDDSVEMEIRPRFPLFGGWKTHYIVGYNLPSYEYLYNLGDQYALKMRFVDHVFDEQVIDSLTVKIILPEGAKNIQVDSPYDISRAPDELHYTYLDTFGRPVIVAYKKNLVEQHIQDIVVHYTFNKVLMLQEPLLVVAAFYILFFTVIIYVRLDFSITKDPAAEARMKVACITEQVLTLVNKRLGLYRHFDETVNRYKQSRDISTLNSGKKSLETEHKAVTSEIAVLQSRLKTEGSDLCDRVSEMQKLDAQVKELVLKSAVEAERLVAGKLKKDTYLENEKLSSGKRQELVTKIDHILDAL
Sequence of Endoplasmin (mouse) (P08113 22-802 limits assumed): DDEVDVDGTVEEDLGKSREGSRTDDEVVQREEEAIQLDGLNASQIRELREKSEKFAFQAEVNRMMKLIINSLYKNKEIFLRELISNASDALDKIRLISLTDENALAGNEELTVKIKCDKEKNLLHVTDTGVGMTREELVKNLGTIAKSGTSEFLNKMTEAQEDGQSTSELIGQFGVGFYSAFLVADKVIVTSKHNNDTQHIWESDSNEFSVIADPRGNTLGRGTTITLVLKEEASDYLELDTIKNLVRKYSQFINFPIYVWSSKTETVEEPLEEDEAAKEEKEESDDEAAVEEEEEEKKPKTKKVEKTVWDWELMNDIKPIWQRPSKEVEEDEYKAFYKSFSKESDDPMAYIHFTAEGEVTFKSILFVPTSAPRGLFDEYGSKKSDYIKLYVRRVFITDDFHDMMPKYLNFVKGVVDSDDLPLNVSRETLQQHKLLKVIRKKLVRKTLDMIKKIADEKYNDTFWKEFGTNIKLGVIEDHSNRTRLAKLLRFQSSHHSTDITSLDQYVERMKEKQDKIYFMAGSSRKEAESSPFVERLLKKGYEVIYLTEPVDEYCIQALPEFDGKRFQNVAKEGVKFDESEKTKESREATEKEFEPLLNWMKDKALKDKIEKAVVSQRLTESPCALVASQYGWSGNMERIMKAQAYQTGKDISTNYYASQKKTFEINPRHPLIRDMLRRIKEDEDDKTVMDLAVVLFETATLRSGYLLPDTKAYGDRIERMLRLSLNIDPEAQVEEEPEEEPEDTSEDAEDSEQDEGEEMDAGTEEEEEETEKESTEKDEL
Sequence of Elongation factor 1-gamma (mouse) (Q9D8N0 2-437 limits assumed): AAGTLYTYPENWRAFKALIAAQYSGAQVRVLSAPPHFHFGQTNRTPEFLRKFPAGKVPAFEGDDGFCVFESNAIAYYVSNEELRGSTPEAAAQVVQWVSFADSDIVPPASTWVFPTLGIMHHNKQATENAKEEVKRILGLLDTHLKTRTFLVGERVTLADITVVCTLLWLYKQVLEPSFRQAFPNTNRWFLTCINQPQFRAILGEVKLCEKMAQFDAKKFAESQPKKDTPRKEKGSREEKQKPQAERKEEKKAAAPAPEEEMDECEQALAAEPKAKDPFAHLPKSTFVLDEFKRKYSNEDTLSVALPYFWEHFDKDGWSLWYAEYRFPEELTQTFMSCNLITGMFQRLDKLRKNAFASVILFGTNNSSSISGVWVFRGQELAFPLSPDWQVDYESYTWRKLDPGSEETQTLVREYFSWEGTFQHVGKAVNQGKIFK
Sequence of Clusterin (mouse) (Q06890 22-448 limits assumed): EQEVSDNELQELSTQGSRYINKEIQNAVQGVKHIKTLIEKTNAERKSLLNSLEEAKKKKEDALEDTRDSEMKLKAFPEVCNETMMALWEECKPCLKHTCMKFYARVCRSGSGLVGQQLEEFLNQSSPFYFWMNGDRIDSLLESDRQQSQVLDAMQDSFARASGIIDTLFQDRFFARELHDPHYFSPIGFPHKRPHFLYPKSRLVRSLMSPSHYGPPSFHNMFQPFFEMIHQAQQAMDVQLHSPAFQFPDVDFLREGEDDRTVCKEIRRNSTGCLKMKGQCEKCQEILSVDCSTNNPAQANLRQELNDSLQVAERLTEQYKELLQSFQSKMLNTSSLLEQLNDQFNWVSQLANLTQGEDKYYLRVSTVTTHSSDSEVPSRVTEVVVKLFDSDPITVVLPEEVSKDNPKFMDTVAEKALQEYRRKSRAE
Sequence of Putative uncharacterized protein (Sqrdl) (mouse) (Q9R112 whole entry): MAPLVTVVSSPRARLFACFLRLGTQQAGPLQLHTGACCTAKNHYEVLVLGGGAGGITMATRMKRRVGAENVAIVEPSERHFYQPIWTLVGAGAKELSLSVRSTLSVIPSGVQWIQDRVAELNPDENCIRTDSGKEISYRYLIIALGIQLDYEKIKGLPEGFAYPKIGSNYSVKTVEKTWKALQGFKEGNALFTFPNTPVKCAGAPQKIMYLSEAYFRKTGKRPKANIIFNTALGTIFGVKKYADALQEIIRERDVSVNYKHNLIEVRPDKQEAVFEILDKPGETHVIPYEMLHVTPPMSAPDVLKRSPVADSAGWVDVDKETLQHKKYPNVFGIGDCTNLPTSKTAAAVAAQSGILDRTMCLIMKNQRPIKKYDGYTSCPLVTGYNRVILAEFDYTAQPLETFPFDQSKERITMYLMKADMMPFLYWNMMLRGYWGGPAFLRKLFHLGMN
Sequence of Isoform 2 of Microtubule-associated protein 4 (mouse) (P27546 other isoform, or with tags, fused parts or gaps limits assumed): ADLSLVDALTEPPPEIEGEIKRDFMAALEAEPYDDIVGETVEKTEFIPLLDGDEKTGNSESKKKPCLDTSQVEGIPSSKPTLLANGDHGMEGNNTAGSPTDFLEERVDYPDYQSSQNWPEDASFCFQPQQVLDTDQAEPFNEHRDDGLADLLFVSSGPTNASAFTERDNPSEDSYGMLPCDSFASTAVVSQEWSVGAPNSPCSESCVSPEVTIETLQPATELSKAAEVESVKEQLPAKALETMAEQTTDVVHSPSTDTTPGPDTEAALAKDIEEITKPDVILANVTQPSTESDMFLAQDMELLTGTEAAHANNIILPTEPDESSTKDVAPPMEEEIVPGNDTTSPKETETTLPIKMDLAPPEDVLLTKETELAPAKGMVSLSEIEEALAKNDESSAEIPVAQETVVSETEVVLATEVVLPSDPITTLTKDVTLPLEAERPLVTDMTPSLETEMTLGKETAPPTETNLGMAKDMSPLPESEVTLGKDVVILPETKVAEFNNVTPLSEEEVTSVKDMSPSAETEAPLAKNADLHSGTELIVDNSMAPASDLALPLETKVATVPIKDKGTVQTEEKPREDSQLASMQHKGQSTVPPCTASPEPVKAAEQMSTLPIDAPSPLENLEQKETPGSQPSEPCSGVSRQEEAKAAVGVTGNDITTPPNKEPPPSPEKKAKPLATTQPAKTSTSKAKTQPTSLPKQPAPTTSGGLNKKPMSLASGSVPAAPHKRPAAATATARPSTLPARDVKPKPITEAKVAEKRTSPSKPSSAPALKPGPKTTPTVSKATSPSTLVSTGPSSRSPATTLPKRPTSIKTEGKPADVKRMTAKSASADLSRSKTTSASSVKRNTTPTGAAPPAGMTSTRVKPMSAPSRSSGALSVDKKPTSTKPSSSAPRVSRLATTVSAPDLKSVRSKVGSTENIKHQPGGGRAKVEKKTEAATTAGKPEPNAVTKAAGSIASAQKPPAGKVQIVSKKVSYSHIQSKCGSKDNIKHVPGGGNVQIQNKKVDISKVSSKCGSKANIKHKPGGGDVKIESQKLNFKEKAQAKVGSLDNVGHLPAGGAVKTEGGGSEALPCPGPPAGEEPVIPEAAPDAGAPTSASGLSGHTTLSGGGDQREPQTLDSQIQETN
Sequence of Peroxiredoxin-1 (mouse) (P35700 2-199 limits assumed): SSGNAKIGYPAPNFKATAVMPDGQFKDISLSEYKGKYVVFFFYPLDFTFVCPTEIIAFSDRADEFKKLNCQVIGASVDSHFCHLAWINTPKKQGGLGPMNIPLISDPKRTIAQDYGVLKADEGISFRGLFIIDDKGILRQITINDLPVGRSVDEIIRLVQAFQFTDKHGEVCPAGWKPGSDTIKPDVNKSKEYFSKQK
Sequence of Cytochrome b-c1 complex subunit 2, mitochondrial (mouse) (Q9DB77 15-453 limits assumed, one chain of several): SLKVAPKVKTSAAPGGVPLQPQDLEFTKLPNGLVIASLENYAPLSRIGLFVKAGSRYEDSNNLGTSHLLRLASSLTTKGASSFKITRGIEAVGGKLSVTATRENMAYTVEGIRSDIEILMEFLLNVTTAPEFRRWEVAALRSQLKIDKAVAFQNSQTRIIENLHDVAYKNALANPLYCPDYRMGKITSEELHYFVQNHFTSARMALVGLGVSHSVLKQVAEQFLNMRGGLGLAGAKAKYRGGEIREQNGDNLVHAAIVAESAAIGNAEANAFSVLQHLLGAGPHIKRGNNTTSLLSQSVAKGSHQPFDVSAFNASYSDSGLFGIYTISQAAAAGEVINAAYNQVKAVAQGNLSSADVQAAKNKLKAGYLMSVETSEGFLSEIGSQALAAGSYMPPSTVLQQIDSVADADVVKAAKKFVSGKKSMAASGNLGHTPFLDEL

# PSM (IP1) (peptide spectral matches) [1]: 6 | # PSM (IP2) (peptide spectral matches) [1]: 19 | # PSM (IP1) (peptide spectral matches) [2]: 7 | # PSM (IP2) (peptide spectral matches) [2]: 14 | # PSM (IP1) (peptide spectral matches) [3]: 5 | # PSM (IP2) (peptide spectral matches) [3]: 6 | # PSM (IP1) (peptide spectral matches) [4]: 13 | # PSM (IP2) (peptide spectral matches) [4]: 92 | # PSM (IP1) (peptide spectral matches) [5]: 4 | # PSM (IP2) (peptide spectral matches) [5]: 10 | # PSM (IP1) (peptide spectral matches) [6]: 13 | # PSM (IP2) (peptide spectral matches) [6]: 14 | # PSM (IP1) (peptide spectral matches) [7]: 7 | # PSM (IP2) (peptide spectral matches) [7]: 36 | # PSM (IP1) (peptide spectral matches) [8]: 8 | # PSM (IP2) (peptide spectral matches) [8]: 9 | # PSM (IP1) (peptide spectral matches) [9]: 7 | # PSM (IP2) (peptide spectral matches) [9]: 16 | # PSM (IP1) (peptide spectral matches) [10]: 11 | # PSM (IP2) (peptide spectral matches) [10]: 11 | # PSM (IP1) (peptide spectral matches) [11]: 6 | # PSM (IP2) (peptide spectral matches) [11]: 23 | # PSM (IP1) (peptide spectral matches) [12]: 8 | # PSM (IP2) (peptide spectral matches) [12]: 8 | # PSM (IP1) (peptide spectral matches) [13]: 23 | # PSM (IP2) (peptide spectral matches) [13]: 31 | # PSM (IP1) (peptide spectral matches) [14]: 23 | # PSM (IP2) (peptide spectral matches) [14]: 48 | # PSM (IP1) (peptide spectral matches) [15]: 30 | # PSM (IP2) (peptide spectral matches) [15]: 8
Substance: human IgG Fc-conjugated Dectin-1 fusion protein (murine Dectin-1 IgG Fc; fc-mdec1a, InvivoGen) (from UniProt Q6QLQ4 69-244) (Fc fusion)

MFI [16]: 669
Substance: fluorescently-conjugated isotype antibody
